# B1: Pr68 (dsDNA)
# DNA 1: GTACTATACATTATAGAGTAG
# DNA 2: CTACTCTATAATGTATAGTAC
# B2: Pr69 (dsDNA)
# DNA 1: ATGCTATAATTTTATCACTATGGTACTATATTACAATAATGCACTTTTTTGTAATATAGTATCTAAAAAGATACTTTAAAATAAATAAAGGAGCTCAAAA
# DNA 2: TTTTGAGCTCCTTTATTTATTTTAAAGTATCTTTTTAGATACTATATTACAAAAAAGTGCATTATTGTAATATAGTACCATAGTGATAAAATTATAGCAT
# B3: Pr121 (dsDNA)
# DNA 1: AAGCTACCTTGCATAAATATCTTGGATAGTATATTGATTATATAATCAGTAAATGTTATACTTTTCATGACGATAAAAACATTTTAGTCATAAGGGGGTT
# DNA 2: AACCCCCTTATGACTAAAATGTTTTTATCGTCATGAAAAGTATAACATTTACTGATTATATAATCAATATACTATCCAAGATATTTATGCAAGGTAGCTT
# B4: Pr41 (dsDNA)
# DNA 1: TACTATACATTATAGAGTAGTA
# DNA 2: TACTACTCTATAATGTATAGTA
# B5: Pr27 (PcdpadR1) (dsDNA)
# DNA 1: TAAACCTTGTATTATAGAGTACTATGTATTATTATAGTAAATATAAGTACTATACATTATAGAGTAGTAGGTGAAAAGGCGGTGGTACATAATGCAGTTA
# DNA 2: TAACTGCATTATGTACCACCGCCTTTTCACCTACTACTCTATAATGTATAGTACTTATATTTACTATAATAATACATAGTACTCTATAATACAAGGTTTA
# B6: Pr54 (dsDNA)
# DNA 1: GTAAATATAAGTACTATACATTATAGAGTAG
# DNA 2: CTACTCTATAATGTATAGTACTTATATTTAC
# B7: Pr31 (dsDNA)
# DNA 1: AATATAAGTACTATACATTATAGAGTAGTAGGTGAAAAGGCGGTGGTACATAATGCAGTTA
# DNA 2: TAACTGCATTATGTACCACCGCCTTTTCACCTACTACTCTATAATGTATAGTACTTATATT
# B8: Pr42 (dsDNA)
# DNA 1: CTATACATTATAG
# DNA 2: CTATAATGTATAG
# B9: Pr111 (dsDNA)
# DNA 1: ATATAGGAAATATAGAACAGATTTTCCAAGAAATCTAAATATTCTATGACCACGTGAATTGCTATGCACACATGTTGATAATCCATATTTTAAATCTAAA
# DNA 2: TTTAGATTTAAAATATGGATTATCAACATGTGTGCATAGCAATTCACGTGGTCATAGAATATTTAGATTTCTTGGAAAATCTGTTCTATATTTCCTATAT
# B10: Pr30 (dsDNA)
# DNA 1: TATAGTAAATATAAGTACTATACATTATAGAGTAGTAGGTGAAAAGGCGGTGGTACATAATGCAGTTA
# DNA 2: TAACTGCATTATGTACCACCGCCTTTTCACCTACTACTCTATAATGTATAGTACTTATATTTACTATA
# B11: Pr29 (dsDNA)
# DNA 1: TAAACCTTGTATTATAGAGTACTATGTATTATTATAGTAAATATAAGTACTATACATTATAGAG
# DNA 2: CTCTATAATGTATAGTACTTATATTTACTATAATAATACATAGTACTCTATAATACAAGGTTTA
# B12: Pr122 (dsDNA)
# DNA 1: TAGAGTACTATGTATTATTATAGTAAATAT
# DNA 2: ATATTTACTATAATAATACATAGTACTCTA
# B13: Pr67 (dsDNA)
# DNA 1: AGTACTATACATTATAGAGTAGT
# DNA 2: ACTACTCTATAATGTATAGTACT
# B14: Pr43 (dsDNA)
# DNA 1: CTATGTATTATTATAGTAAATATAAGTACTATACATTA
# DNA 2: TAATGTATAGTACTTATATTTACTATAATAATACATAG
# B15: Pr35 (dsDNA)
# DNA 1: CATTTAAAGAATGGGATATTATGTAATTGTAGATTATGTAGGTTTAAATTATTTATTTTTGTTTTAGCAAATTCTATGAATAGAAGGGGTTTGATTATGG
# DNA 2: CCATAATCAAACCCCTTCTATTCATAGAATTTGCTAAAACAAAAATAAATAATTTAAACCTACATAATCTACAATTACATAATATCCCATTCTTTAAATG
# B16: Pr88 (dsDNA)
# DNA 1: GTACTATGTATTATTATAGTAA
# DNA 2: TTACTATAATAATACATAGTAC
# B17: Pr32 (dsDNA)
# DNA 1: TGTATTATAGAGTACTATGTATTATTATAGTAAATATAAGTACTATACATTATAGAGTAGTAGG
# DNA 2: CCTACTACTCTATAATGTATAGTACTTATATTTACTATAATAATACATAGTACTCTATAATACA
# B18: Pr53 (dsDNA)
# DNA 1: AATATAAGTACTATACATTATAGAG
# DNA 2: CTCTATAATGTATAGTACTTATATT
# B19: Pr33 (dsDNA)
# DNA 1: GAGTACTATGTATTATTATAGTAAATATAAGTACTATACATTATAGAGTAGTAG
# DNA 2: CTACTACTCTATAATGTATAGTACTTATATTTACTATAATAATACATAGTACTC
# B20: Pr34 (dsDNA)
# DNA 1: TTTGATGAAAAAAATGTTACAATATTTAATATTGAAAATGGCGATGTTATTAGCATAGAGAATGGAGGAAATTAAATGAAACAAGAATACGGTGCAAGTC
# DNA 2: GACTTGCACCGTATTCTTGTTTCATTTAATTTCCTCCATTCTCTATGCTAATAACATCGCCATTTTCAATATTAAATATTGTAACATTTTTTTCATCAAA
# B21: Pr48 (PnorV) (dsDNA)
# DNA 1: TTTTAACCCTCCTAAAATTTATCATTATATAAGTAACATACCCAATTTTGAGGTGAATGAAACAAAAGATGTCATGATAAGTCATGTAAAACAATAGTTT
# DNA 2: AAACTATTGTTTTACATGACTTATCATGACATCTTTTGTTTCATTCACCTCAAAATTGGGTATGTTACTTATATAATGATAAATTTTAGGAGGGTTAAAA
# B22: Pr70 (dsDNA)
# DNA 1: TTATTTACCCCCTATTGTTTTATTAGGCTAAGTTGATGATTTATTTAACCTATGCTATAATTTTATCACTATGGTACTATATTACAATAATGCACTTTTT
# DNA 2: AAAAAGTGCATTATTGTAATATAGTACCATAGTGATAAAATTATAGCATAGGTTAAATAAATCATCAACTTAGCCTAATAAAACAATAGGGGGTAAATAA
# B23: Pr120 (dsDNA)
# DNA 1: TTTTTATTCCTCCCTTTTTATTTATTAAAATTTATTATATTTTTCTATGATTCACTTAATTAAATTTCTCCATCTACAATTTTTCCATCTACAGATATAG
# DNA 2: CTATATCTGTAGATGGAAAAATTGTAGATGGAGAAATTTAATTAAGTGAATCATAGAAAAATATAATAAATTTTAATAAATAAAAAGGGAGGAATAAAAA
# Biological target: cdPadR1 (Clostridium difficile R20291, UniProt A0A9R0CDW8 1-109)
# Assay: EMSA; 20 mM Tris pH 8.0, 120 mM KCl, 10 mM MgCl2, 5 mM DTT, 12.5% glycerol, 125 ug/mL heparin, room temperature
# Conditions: protein: recombinant; tags: N-terminal Strep II; chain copies: 2
row,Binder,binding result
1,B1,binds
2,B2,binds
3,B3,binds
4,B4,binds
5,B5,binds
6,B6,binds
7,B7,binds
8,B8,no binding
9,B9,binds
10,B10,binds
11,B11,binds
12,B12,binds
13,B13,binds
14,B14,no binding
15,B15,binds
16,B16,no binding
17,B17,binds
18,B18,no binding
19,B19,binds
20,B20,binds
21,B21,binds
22,B22,binds
23,B23,binds

# — paper PMC5050560
